Experimental data from PMC6002344.
Ends that are not written are not given here. * marks the point of attachment. Dansyl = CN(C)c1cccc2c(S(=O)(=O)*)cccc12

Molecular target: PDZ1 NHERF1 Y38W
Assay: FRET or BRET; equilibrium fluorescence titration, FRET between Trp38 (donor) and dansyl (acceptor), excitation 280 nm; 50 mM Na phosphate, pH 7.2, 300 mM NaCl, 5 mM DTT, 20% DMSO, 25 °C; without RS5517

B1: Dansyl-NDSLL, dansylated peptide of the C-terminal sequence of the β2-adrenergic receptor (peptide)
peptide: Dansyl-NDSLL
- Kd: 10 µM
